Experiment [1] relates to transduced T cells (ef1a-TK-IRES-rtTA-TRE-hTERT) and non-transduced T cells. Description: Ganciclovir (TK suicide switch) cell growth test. In kind it is cell-based, human. The following applies: in the presence of GCV. On the procedure:
Experimental cells: CD8+CZY-1 SDS-T and NT cell; TK usage: Adult body concentration of 71.45 ng/ml/5000 ng/kg every 24 h injection. In vitro experimental concentration gradients: 357.2 ng/ml, 142.9 ng/ml, 71.45 ng/ml, 35.725 ng/ml, 14.28 ng/ml, 3.6 ng/ml. […] The starting cells were cultured in 200 w cell density of 50 w/ml.
In group three, transduced cells (ef1a-TK-IRES-rtTA-TRE-hTERT) were cultured using media containing Dox (2 μg/ml) and CD19 ECD (1 mg/250,000 CAR T cells). On day 90, various concentrations of GCV was added to the transduced cells. […] DTT cells represent transduced T cells and grew poorly in the presence of GCV.

The next experiment has as its system CAR T-TSHR cells. The experiment in a line: Culture of CAR T-TSHR cells with soluble TSHR ECD. In kind it is cell-based, human. The source says:
Primary T cells were transduced with lentiviral vectors encoding a TSHR CAR to obtain modified T cells including CAR T cells expressing anti-TSHR (thereafter “CAR T-TSHR cells”). The modified T cells were frozen and stored for 30 days. Techniques related to freezing T cells and thawing frozen T cells may be found in Levine et al., Molecular Therapy—Methods & Clinical Development, Molecular Therapy, Vol 4, Mar. 17, 2017.
The modified Tcells were thawed and divided into two groups and cultured, respectively. CAR T-TSHR cells in Group 1 were cultured with anti-CD3 & CD28 beads and IL2 for 10 days, while CAR T-TSHR cells in Group 2 were cultured with various concentrations of soluble TSHR (e.g., extracellular domain of TSHR, SEQ ID: 34), anti-CD3 & CD28 beads and IL2. For Group 2, 500,000 CAR T-TSHR cells were cultured with 10, 125, 500 ng/ml of soluble TSHR ECD for 14 days. The T cell population was observed by flow cytometry (FIGS. 8 and 9), and cellular morphology of the T cell population was observed under microscopes (FIG. 10).

The test system of another experiment is CAR T cells. Description: Long-term culture of CAR T cells (groups A-D) with CD19 antigen, flow cytometry. In kind it is cell-based, human. The source says:
Various CARs (A, B, C, and D) were constructed by linking a signal peptide (SEQ ID NO: 38), antigen-specific single-chain variable fragment (scFv) (SEQ ID NO: 55 or 21), hinge domain (SEQ ID NOs: 68, 69, 70, or 71), a transmembrane domain (SEQ ID NO: 72, 73, 74, or 75), one or more co-stimulation domains (SEQ ID NO: 3), CD3-ζ (SEQ ID NO: 40), and EGFP, respectively (See FIGS. 12 and 13).
Primary T cells were obtained from the peripheral blood of volunteers. The magnetic beads negative selection was performed using Pan-T kit from Miltenyi Biotec, Inc. to collect T cells from the peripheral blood. On the second day after primary T cell isolation, the collected T cells were infected with lentivirus containing A, B, C, and D CARs, respectively (i.e., Lenti-CARs-IRES-EGFP) to prepare CAR T cells.
On the 14th day after infection, 15,000 CAR T cells of each group were collected, and cultured with 1000 ng/ml CD 19 antigen (i.e., recombinant human CD19 protein. After 15 days of stimulation, the concentration of CD19 was changed to 400 ng/ml. After 20 days of stimulation, the concentration of CD19 was changed to 200 ng/ml and maintained until about 130 days.
The expression of CARs and cell morphology were observed using flow cytometry on day-2, day 15 (FIGS. 14-17), day 17 (FIG. 20), day 65 and day 130 at the beginning of the stimulus. […]
For orientation: Flow cytometry measures light scatter and fluorescence of single cells or particles in a stream.

The test system of the next experiment is CAR T19 cells. Description: Culture of CAR T19 cells with or without soluble CD19 ECD. In kind it is cell-based, human. The procedure:
The primary T cells were transduced with lentiviral vectors encoding a CD19 CAR to obtain modified T cells including CAR T cells expressing anti-CD19 (thereafter “CAR T19 cells”) on day 1. The modified T cells were divided into two groups and cultured, respectively. CAR T19 cells in Group 1 were cultured with anti-CD3 & CD28 beads and IL2, while CAR T19 cells in Group 2 were cultured with soluble CD19 (e.g., extracellular domain (ECD) of CD19, SEQ ID: 41), anti-CD3 & CD28 beads and IL2. For Group 2, 500,000 CAR T19 cells were cultured with 2 micrograms of soluble CD19 at the starting point, and 4 micrograms of soluble CD19 were used after the CAR T19 cells were grown. The numbers of cells were measured, and ratios between CAR+ cells and the modified T cell population were observed by flow cytometry. The number of CAR copies in the cell population was measured.
T cell phenotypes were further observed. […] Memory cell marker CD62L on CAR+ and CAR-cells were analyzed to determine phenotypes of cultured T cell population.
CAR T19 cells were cultured with CD19 for over 15 days and then were divided into Group 3 and Group 4. CAR T19 cells in Group 3 were continuously cultured with soluble CD19, while CAR T19 cells in Group 4 were cultured without CD19.

The test system of experiment [2] is anti-CD19 CAR proliferable T cells. Description: Culture of anti-CD19 CAR proliferable T cells with CD19 ECD. In kind it is cell-based, human. The following applies: CD19 ECD added to media (1 mg/250,000 CAR T cells). The source says: The primary T cells obtained from a healthy donor were transduced with lentiviral vectors encoding a CD19 CAR (SEQ ID NO: 21) and lentiviral vectors including sequence 1 or 6 as illustrated in FIG. 1 (ef1a-TK-IRES-rtTA-TRE-hTERT: SEQ ID NOs: 1, 2, 3, 4, 5, and 6 in the 5′ to 3′ order or ef1a-rtTA-TRE-hTERT: SEQ ID Nos: 1, 4, 5, and 6 in the 5′ to 3′ order) to obtain transduced T cells including immortalized T cells expressing anti-CD19 CAR (thereafter “anti-CD19 CAR proliferable T cells”) on day one. The anti-CD19 CAR proliferable T cells were divided into various groups and cultured in different media: in the presence of various concentrations of doxycycline (Dox), CD19 extracellular domain (ECD), and/or Ganciclovir (GCV)). In some groups, CD19 ECD (SEQ ID NO: 22) was added to media (1 mg/250,000 CAR T cells), and percentages of cells expressing CD19 CAR increased.

Experiment [3] is described as follows: Survival and growth of various CAR T cells in vitro (FIG. 43). In kind it is cell-based, human. The following applies: medium containing CD19 ECD vs no CD19 ECD. The source says: In Group 1 (hTert CD19 CAR), the primary T cells obtained from a healthy donor were transduced with a nucleic acid sequence encoding a CD19 CAR and a nucleic acid sequence encoding hTERT. In Group 2 (CD19 CAR), the primary T cells were transduced with the nucleic acid sequence encoding a CD19 CAR. […] CAR T cells are not comprising the nucleic acid sequence encoding hTERT begun to die after about 20 days after cells were transduced with the nucleic acid sequence encoding CAR.

The subject of the next experiment is K562-CD19. Description: IFN-gamma release of CAR T19 cells co-cultured with K562-CD19. In kind it is cell-based. The following applies: after 24 hours; Group 2 (pre-cultured with CD19) vs Group 1; E:T 1:1 or 1:10. On the procedure:
CAR T19 cells of Group 1 and Group 2 were cultured for about one to three weeks using the protocols described above, respectively. CAR T19 cells were then washed and placed into cultures without CD19. These CAR T19 cells were co-cultured with K562-CD19 (E:T 1:1 or 1:10). After 24 hours, 48 hours, and 72 hours, supernatant of the cultures were collected, and IFN-gamma released by the cells were measured to determine functions of CAR T19 cells.

For the molecule `Nc1nc(O)c2ncn(COC(CO)CO)c2n1` [GCV, Ganciclovir], in experiment [1], the “growth of DTT cells (transduced T cells)” value is on record as “grew poorly” and the “growth of NT (non-transduced T cells)” value is recorded as “continued to grow”.

In the case of “TSHR ECD: soluble TSHR, extracellular domain of TSHR, SEQ ID: 34”, in the experiment with CAR T-TSHR cells (500 ng/ml soluble TSHR ECD), the “ratio (P1) of CAR+ cells and the CAR T-TSHR cells” value is recorded as “significantly increased”. In the experiment on CAR T-TSHR cells (as the proportion of added antigen (TSHR-ECD) increased), the cell debris result is “decreased”. The “MFI value (CAR fluorescence)” value in the experiment on CAR T-TSHR cells (under 500 ng antigen stimulation) was “increased”. Moreover, in the experiment with CAR T-TSHR cells (with increasing concentrations of TSHR ECD (10, 125, 500 ng/ml)), the “SSC-A dispersible FSC low population” value is given as “decreased”.

B1: CD19 ECD: soluble CD19, extracellular domain (ECD) of CD19, SEQ ID: 41 / SEQ ID NO: 22; recombinant human CD19 protein (protein)
chain: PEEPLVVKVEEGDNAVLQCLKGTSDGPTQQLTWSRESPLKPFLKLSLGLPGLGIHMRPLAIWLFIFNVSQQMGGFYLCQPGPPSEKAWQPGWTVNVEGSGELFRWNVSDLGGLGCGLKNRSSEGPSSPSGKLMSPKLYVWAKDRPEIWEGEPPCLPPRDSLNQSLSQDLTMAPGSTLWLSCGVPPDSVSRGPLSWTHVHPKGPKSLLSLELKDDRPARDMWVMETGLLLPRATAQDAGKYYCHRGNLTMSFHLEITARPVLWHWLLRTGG
B1: the “percentage of CD4 cells” value in the experiment with CAR T cells (CD19-stimulated cells vs parallel untreated) is given as “increased”. Also, in the experiment on CAR T cells (after CD19 stimulation), the “proportion of CAR+EGFP+ cells” value is “increase”. In addition, in the experiment with CAR T19 cells (CAR T19 cells of Group 2 (cultured with CD19), day 30), the “cells showing the phenotype of memory cells (CD62L hi)” value was “entire or majority cells”. Also, the “cell expansion during the early stage” value in the experiment on CAR T19 cells (CD19 ECD added to media vs culturing without CD19 ECD, about day 3 to day 10, non-transduced T cells and CD19 CAR T cells) is listed as “no apparent increases”. Moreover, the “ratio of CAR T19 cells and T cells (flow cytometry)” value with CAR T19 cells (Group 2 (soluble CD19) vs Group 1) is “higher”. In the experiment with CAR T19 cells (Group 2 (soluble CD19) vs Group 1 (no CD19)), the “copy numbers of CAR T19 cells (qPCR)” value is “higher”. For the same molecule, the “ratio of CAR T19 cells and T cells” value in the experiment with CAR T19 cells (Group 2, day 30 after the starting point) is reported as “continued to rise”. Further, the “numbers of CAR+ cells” value with CAR T19 cells (Group 4 (CD19 removed after over 15 days) vs Group 3 (continued soluble CD19), Day 27) is listed as “relatively lower”. For the same molecule, the “cell expansion rates of CD19 CAR T cells after the early stage” value with CAR T19 cells (vs cells cultured without the CD19 ECD, after about day 10) is “increased at a higher rate”. Moreover, the “percentages of cells expressing CD19 CAR” value in experiment [2] is “increased”. In addition, in experiment [3], the “cell growth rates of hTERT CAR T cells” value is “higher cell growth rates”. In the experiment with K562-CD19, the IFN-gamma released entry was “significantly higher”.
